B1: Abet0380: optimized anti-Aβ1-42 clone derived from Abet0144-GL, non-germlined (protein)
scFv (part 1 of 2): EVQLLESGGGLVQPGGSLRLSCAASMGNFNYQTMWWVRQAPGRGLEWVSVIGKTNENIAYADSVKGRFTISRDNSKNTLYLQMNSLRAEDTAVYYCAREWMDHSRPYYYYGMDVWGQGTLVTVSS
scFv (part 2 of 2): SYELTQPPSVSVSPGQTASITCSGHNLEDKFASWYQQKPGQSPVLVIYRDDKRPSGIPERFSASNSGHTATLTISGTQATDEADYYCSSQDTVTRVFGGGTKLTVL
modifications: left off: small tags and cut ends
notes: optimized anti-Aβ1-42 clone derived from Abet0144-GL, non-germlined
B2: Abet0369: optimized anti-Aβ1-42 clone derived from Abet0144-GL (protein)
scFv (part 1 of 2): EVQLLESGGGLVQPGGSLRLSCAASSFQISKNTMWWVRRAPGKGLEWVSVIGKDETRFNYADSVKGRFTISRDNSKNTLYLQMNSLRAEDTAVYYCAREWMDHSRPYYYYGMDVWGQGTLVTVSS
scFv (part 2 of 2): SYGLTQPPSVSVSPGQTASITCSGRNIGDSWVAWYQQKPGQSPVLVIYRDDKRPSGIPERFSASNSGHTATLTISGTQATDEADYYCSSQDTVTRVFGGGTKLTVL
modifications: left off: small tags and cut ends
notes: optimized anti-Aβ1-42 clone derived from Abet0144-GL
B3: Abet0321b: optimized anti-Aβ1-42 clone derived from Abet0144-GL (protein)
scFv (part 1 of 2): EVQLLESGGGLVQPGGSLRLSCAASAYHSNHDPMWWVRQAPGKGLEWVSVIGSSGGTTAYADSVKGRFTISRDNSKNTLYLQMNSLRAEDTAVYYCAREWMDHSRPYYYYGMDVWGQGTLVTVSS
scFv (part 2 of 2): SYELTQPPSVSVSPGQTASITCSGHNLEDKFASWYQQKPGQSPVLIIYRDDKRPSGIPERFSASNSGHTATLTISGTQATDEADYYCSSQDTVTRVFGGGTKLTVL
modifications: left off: small tags and cut ends
notes: as for B2
B4: Abet0377: optimized anti-Aβ1-42 clone from quaternary library (protein)
scFv (part 1 of 2): EVQLLESGGGLVQPGGSLRLSCAASGFNFNEQTLWWVRQAPGKGLEWVSVIGVGTKNIAYADTVKGRFTISRDNSKNTLYLQMNSLRAEDTAVYYCAREWMDHSRPYYYYGMDVWGQGTLVTVSS
scFv (part 2 of 2): SYELTQPPSVSVSPGQTASITCSGHNTEHKWISWYQQKPGQSPVLVIYRDDKRPSGIPERFSATNSGHTATLTISGTQATDEADYYCSSQDTVTRVFGGGTKLTVL
modifications: left off: small tags and cut ends
notes: optimized anti-Aβ1-42 clone from quaternary library

Assays:
[1] = biological target: T1, human Amyloid beta 1-42 peptide (Homo sapiens, UniProt P05067); experiment: Abet0144-GL HTRF epitope competition assay; type: binding; conditions: purified competitor scFv; inhibition of human Amyloid beta 1-42 : Abet0144-GL IgG1-TM complex
T1 construct: biotinylated human Amyloid beta 1-42 peptide (rpeptide, USA; cat: A1117); purchased rPeptide, USA A1117; host or cells: synthetic peptide
T1 sequence (P05067 672-713): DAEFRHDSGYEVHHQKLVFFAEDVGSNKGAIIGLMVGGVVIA
Description: Two thousand and twenty four scFv chosen at random from selection rounds 3 and 4 of the targeted mutagenesis approach described in section 1.2 were expressed in bacteria to produce unpurified periplasmic scFv. Those scFv capable of binding synthetic human amyloid beta 1-42 peptide via the same epitope as Abet0144-GL IgG1-TM were elucidated in a competition format assay, using the HTRF™ platform. Specifically, fluorescence resonance energy transfer (FRET) was measured between streptavidin cryptate (associated with biotinylated amyloid beta 1-42 peptide) and anti-human Fc XL665 (associated with Abet0144-GL IgG1-TM) in the presence of a single concentration of each unpurified periplasmic test scFv.
A ‘Total’ binding signal was determined by analysing the binding of Abet0144-GL IgG1-TM to synthetic human Amyloid beta 1-42 peptide in the absence of competitor peptide. The ‘Sample’ signals were derived from analysing the binding of Abet0144-GL IgG1-TM to synthetic human Amyloid beta 1-42 peptide in the presence of a test scFv sample. Finally, a ‘Cryptate Blank’ signal was determined by analysing the fluorescence mediated by the detection reagent cocktail alone.
Unpurified periplasmic scFv were supplied in sample buffer consisting of 50 mM MOPS, pH 7.4, 0.5 mM EDTA, and 0.5 M sucrose. […] Assay plates were sealed and then incubated for 3 hours at room temperature in the dark, prior to measuring time-resolved fluorescence at 620 and 665 nm emission wavelengths on a fluorescence plate reader.
Data were analysed by calculating % Delta F values for each sample. % Delta F was determined according to equation 1. […]
Data were again analysed by calculating the % Delta F and % Total binding values for each sample. In addition, a % Inhibition value for each concentration of purified scFv was also calculated as described in Equation 3: […]

[2] = biological target: T1, human Amyloid beta 1-42 peptide; experiment: Surface Plasmon Resonance kinetic profiling of purified scFv (ProteOn); type: binding; conditions: biotinylated human Amyloid beta 1-42 on streptavidin chip
Source text: Surface Plasmon Resonance was used to analyse the purified scFv clones that had shown significant improvement in binding affinity for human Amyloid beta 1-42 peptide over the parent sequence, Abet0144-GL, in the HTRF™ epitope competition assay (sections 1.3-1.6). Briefly, the ProteOn Protein Interaction Array System (BioRad, USA) was used to assess the kinetic parameters of the interaction between each purified scFv and synthetically produced human Amyloid beta 1-42 peptide. These experiments were performed essentially as described by Karlsson et al. (Karlsson et al., 1991).
The affinity of binding between each test scFv and human Amyloid beta 1-42 was estimated using assays in which biotinylated synthetic human Amyloid beta 1-42 peptide (rPeptide, USA; cat: Al 117) was non-covalently bound via a biotin/streptavidin interaction to a proprietary streptavidin chip (NTA 176-5021) at five different surface densities. The chip surface was regenerated between cycles by a single 60 second injection of 10 mM Glycine pH 2.0 to remove scFv bound to the peptide.
Each scFv at 100-200 nM was sequentially passed over the peptide surface for a sufficient amount of time to observe sensorgrams that could be fitted to an appropriate binding model with confidence. An irrelevant scFv blank was subtracted from the main dataset to reduce the impact of any buffer artefacts or non-specific binding effects. An appropriate binding model was then fitted to the data.

Molecule	potency over the parent Abet0144-GL scFv sequence (FIG. 1) [1]	ka [2] [M⁻¹ s⁻¹]	kd [2] [s⁻¹]	ka ([2]; listed as Abet0380 scFv) [M⁻¹ s⁻¹]	kd ([2]; listed as Abet0380 scFv) [s⁻¹]
B1	significant improvement in potency	193000	2.85e-05	193000	2.85e-05
B2	significant improvement in potency	327000	4.34e-05	–	–
B3	–	150000	3.33e-05	–	–
B4	significant improvement in potency	196000	3.02e-05	–	–

Source: US20190262327A1, “COMBINATION OF A BACE INHIBITOR AND AN ANTIBODY OR ANTIGEN-BINDING FRAGMENT FOR THE TREATMENT OF A DISORDER ASSOCIATED WITH THE ACCUMULATION OF AMYLOID BETA” (ASTRAZENECA AB, priority 2016, published 2019)
